Assay in all cases: ELISA on insulin-coated plate, 100 nM
Background: In an ELISA, binding on a coated surface is turned into a signal by an enzyme label.

Assay [1] has as its target Insulin (UniProt P01308).
The target in assay [2] is Insulin (UniProt P01308). This is another data set of the same source.
The target of assay [3] is Insulin (UniProt P01308). This is another data set of the same source.
In assay [4] the target is Insulin (UniProt P01308). The source holds these as a separate data set.
Assay [5] addresses Insulin (UniProt P01308). The source holds these as a separate data set.
For assay [6], the target named is Insulin (UniProt P01308). The source holds these as a separate data set.

Where two headings read alike, the source gives them in different places.

In the case of Elotuzumab (antibody), the Insulin polyreactivity score with Insulin [1] was found to be 1.01; with Insulin [2], 1; with Insulin [3], 1.09; with Insulin [4] it was 3.43; with Insulin [5], 1.25.

Lenzilumab (antibody): the Insulin polyreactivity score with Insulin [6] is 69.2; with Insulin [1] it was 7.87; in the assay with Insulin [2] it was 1.52; with Insulin [3] it was 7.93; with Insulin [4] it was 69.2; with Insulin [5], 21.3.

For the origin of these results see patent US20240132591A1.
